From patent US9138467

Tests used:
[1] = target: M. gallisepticum affinity purified antigen; assay: lectin affinity chromatography, protein in eluate as percent of load
[2] = target: M. gallisepticum affinity purified antigen; assay: lectin affinity chromatography, protein in eluate (about 1.5 mg loaded)

Concanavalin A (immobilized Con A column) (from UniProt P02866 30-281)
% recovery in Con A elution [1]: 5.7% | Total protein (mg) eluted from Con A column [2]: 0.088 mg
